These results are taken from paper PMC7205312.

Holding throughout (assay): co-IP (IP anti-Myc beads, IB anti-HA), band intensity by ImageJ
Common to all, as to details: chain shown with the change; NB-ARC-HA co-expressed with NB-ARC-Myc; parent: 1.00

The target in assay [1] is T1, Tm-2^2 NB-ARC (D481V, L233A), Q71BG9.
T1 chain: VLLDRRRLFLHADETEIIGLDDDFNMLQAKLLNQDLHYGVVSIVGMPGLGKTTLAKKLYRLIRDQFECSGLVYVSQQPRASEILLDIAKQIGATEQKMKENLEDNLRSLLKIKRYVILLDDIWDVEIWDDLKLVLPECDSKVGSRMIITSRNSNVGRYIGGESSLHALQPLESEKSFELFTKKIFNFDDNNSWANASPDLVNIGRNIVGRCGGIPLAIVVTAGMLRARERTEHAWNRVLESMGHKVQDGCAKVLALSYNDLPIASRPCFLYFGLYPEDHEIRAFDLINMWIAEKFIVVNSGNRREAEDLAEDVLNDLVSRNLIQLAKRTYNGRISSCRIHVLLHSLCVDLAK

Assay [2] concerns the target T2, Tm-2^2 NB-ARC (D481V, L242A), Q71BG9.
T2 chain: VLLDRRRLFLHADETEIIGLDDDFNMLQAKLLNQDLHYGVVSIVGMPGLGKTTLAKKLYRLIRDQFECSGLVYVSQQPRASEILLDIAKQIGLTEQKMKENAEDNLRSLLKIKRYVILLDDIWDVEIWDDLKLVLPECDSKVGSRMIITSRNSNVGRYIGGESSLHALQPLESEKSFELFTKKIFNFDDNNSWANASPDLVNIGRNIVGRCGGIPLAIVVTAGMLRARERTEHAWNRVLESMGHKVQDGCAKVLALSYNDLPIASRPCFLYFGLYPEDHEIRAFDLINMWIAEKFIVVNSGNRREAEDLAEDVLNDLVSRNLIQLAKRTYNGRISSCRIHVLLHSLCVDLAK

In assay [3] the target is T3, Tm-2^2 NB-ARC (D481V, L246A), Q71BG9.
T3 chain: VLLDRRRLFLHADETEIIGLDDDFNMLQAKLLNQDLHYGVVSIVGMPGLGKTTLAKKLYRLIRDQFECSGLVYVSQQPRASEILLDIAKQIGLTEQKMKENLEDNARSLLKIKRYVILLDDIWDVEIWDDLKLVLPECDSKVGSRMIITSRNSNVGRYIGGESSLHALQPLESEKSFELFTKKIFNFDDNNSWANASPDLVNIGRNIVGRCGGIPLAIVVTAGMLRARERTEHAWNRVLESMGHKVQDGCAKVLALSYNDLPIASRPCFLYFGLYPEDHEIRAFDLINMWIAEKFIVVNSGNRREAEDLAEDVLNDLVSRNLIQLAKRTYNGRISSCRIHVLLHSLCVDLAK

B1: Tm-2^2 NB-ARC (D481V), Q71BG9 L233A; D481V (protein)
chain: VLLDRRRLFLHADETEIIGLDDDFNMLQAKLLNQDLHYGVVSIVGMPGLGKTTLAKKLYRLIRDQFECSGLVYVSQQPRASEILLDIAKQIGATEQKMKENLEDNLRSLLKIKRYVILLDDIWDVEIWDDLKLVLPECDSKVGSRMIITSRNSNVGRYIGGESSLHALQPLESEKSFELFTKKIFNFDDNNSWANASPDLVNIGRNIVGRCGGIPLAIVVTAGMLRARERTEHAWNRVLESMGHKVQDGCAKVLALSYNDLPIASRPCFLYFGLYPEDHEIRAFDLINMWIAEKFIVVNSGNRREAEDLAEDVLNDLVSRNLIQLAKRTYNGRISSCRIHVLLHSLCVDLAK
Take B1: the ratio to parent in assay [1] turned out to be 0.64.

B2: Tm-2^2 NB-ARC (D481V), Q71BG9 L242A; D481V (protein)
chain: VLLDRRRLFLHADETEIIGLDDDFNMLQAKLLNQDLHYGVVSIVGMPGLGKTTLAKKLYRLIRDQFECSGLVYVSQQPRASEILLDIAKQIGLTEQKMKENAEDNLRSLLKIKRYVILLDDIWDVEIWDDLKLVLPECDSKVGSRMIITSRNSNVGRYIGGESSLHALQPLESEKSFELFTKKIFNFDDNNSWANASPDLVNIGRNIVGRCGGIPLAIVVTAGMLRARERTEHAWNRVLESMGHKVQDGCAKVLALSYNDLPIASRPCFLYFGLYPEDHEIRAFDLINMWIAEKFIVVNSGNRREAEDLAEDVLNDLVSRNLIQLAKRTYNGRISSCRIHVLLHSLCVDLAK
As for B2, in assay [2], the ratio to parent turned out to be 0.62.

B3: Tm-2^2 NB-ARC (D481V), Q71BG9 L246A; D481V (protein)
chain: VLLDRRRLFLHADETEIIGLDDDFNMLQAKLLNQDLHYGVVSIVGMPGLGKTTLAKKLYRLIRDQFECSGLVYVSQQPRASEILLDIAKQIGLTEQKMKENLEDNARSLLKIKRYVILLDDIWDVEIWDDLKLVLPECDSKVGSRMIITSRNSNVGRYIGGESSLHALQPLESEKSFELFTKKIFNFDDNNSWANASPDLVNIGRNIVGRCGGIPLAIVVTAGMLRARERTEHAWNRVLESMGHKVQDGCAKVLALSYNDLPIASRPCFLYFGLYPEDHEIRAFDLINMWIAEKFIVVNSGNRREAEDLAEDVLNDLVSRNLIQLAKRTYNGRISSCRIHVLLHSLCVDLAK
In the case of B3, in assay [3], the ratio to parent came out at 0.45.
